From paper PMC11846418 (Cancer Cell International, 2025)

Target: HA-CDK1 (UniProt P06493 1-297)
Experiment: pull-down

HA-CDK1, sequence (P06493 whole entry): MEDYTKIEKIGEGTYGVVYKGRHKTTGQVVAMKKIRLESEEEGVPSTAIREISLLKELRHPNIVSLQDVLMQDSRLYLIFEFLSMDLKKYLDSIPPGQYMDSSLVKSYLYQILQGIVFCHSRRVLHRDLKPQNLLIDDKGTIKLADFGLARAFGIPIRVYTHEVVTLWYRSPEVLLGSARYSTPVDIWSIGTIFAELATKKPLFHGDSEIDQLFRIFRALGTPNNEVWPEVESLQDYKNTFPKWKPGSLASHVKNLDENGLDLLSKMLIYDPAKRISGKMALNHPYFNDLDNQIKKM

B1: GST-USP7 210-500 (domain or fragment, UniProt Q93009 210-500, looked up)
chain: HTGYVGLKNQGATCYMNSLLQTLFFTNQLRKAVYMMPTEGDDSSKSVPLALQRVFYELQHSDKPVGTKKLTKSFGWETLDSFMQHDVQELCRVLLDNVENKMKGTCVEGTIPKLFRGKMVSYIQCKEVDYRSDRREDYYDIQLSIKGKKNIFESFVDYVAVEQLDGDNKYDAGEHGLQEAEKGVKFLTLPPVLHLQLMRFMYDPQTDQNIKINDRFEFPEQLPLDEFLQKTDPKDPANYILHAVLVHSGDNHGGHYVVYLNPKGDGKWCKFDDDVVSRCTKEEAIEHNYGG
  binding result: binds
